# Laboratory results reported in publication PMC12362114.
# Key:
# [1] = molecular target: 3xFlag-FASN wild type (fatty acid synthase) (UniProt P49327); assay: native gel or EMSA; lysates of transfected Hep3B cells (10 mM Tris/HCl, 1 mM EDTA, 1 mM EGTA, 0.5% Triton X-100, pH 7.5) on a 4-to-10% gradient gel, 50 V overnight at 4 °C, blotted for 3xFlag-FASN; monomers (~250 kDa) and dimers (~500 kDa)
# [2] = anti-Flag Western blot, Hep3B lysates; details: glycan lost; control: wild type 3xFlag-FASN
# [3] = BODIPY 493/503 staining, confocal, droplet count; details: glycan lost; control: wild type 3xFlag-FASN
# [4] = cell fractionation (membrane vs cytosol), Western blot; details: glycan lost; control: wild type 3xFlag-FASN
# [5] = cycloheximide chase 0-24 h, protein remaining; details: glycan lost; control: wild type 3xFlag-FASN
stoichiometry N [1],Substance,expression_or_secretion [2],other: lipid droplet number (activity proxy) [3],localisation_or_trafficking [4],degradation_or_half_life [5]
2,"3xFlag-FASN wild type (fatty acid synthase), P49327 1-2511",,,,
,Fatty Acid Synthase (FASN): S595A,decreases,no change,no change,
,Fatty Acid Synthase (FASN): T980A,decreases,,decreases,decreases
